Measured values from US20250361322A1 (ICONIC THERAPEUTICS, published 2025).
Like-named read-outs stand apart in the source and are kept apart here.

Columns and labels:
rTF (rat TF) [1] = target: T1, rTF (rat TF) (rat, UniProt P42533 29-252); assay: live cell staining, flow cytometry, transfected HEK293
Experimental: (§1) To establish binding of the anti-human TF antibodies to the various TF constructs, HEK293 cells were transfected with a DNA plasmid that co-expresses the TF construct and a green fluorescent protein marker. […] Upon acquisition of 80,000 live events on a flow cytometer, live cells marked with the fluorescent marker were analyzed for the degree of staining by the anti-TF antibody.

h1-107_r = target: T2, h1-107_r (human/rat chimera); assay: as above
T2 chain: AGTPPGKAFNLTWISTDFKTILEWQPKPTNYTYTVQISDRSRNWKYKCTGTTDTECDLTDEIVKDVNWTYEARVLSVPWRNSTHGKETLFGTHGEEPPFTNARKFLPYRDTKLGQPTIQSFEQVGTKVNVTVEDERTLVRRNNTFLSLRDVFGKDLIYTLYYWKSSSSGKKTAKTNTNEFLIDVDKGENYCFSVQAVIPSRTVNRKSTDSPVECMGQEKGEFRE
Experimental: as §1

h1-77_r = target: T3, h1-77_r (human/rat chimera); assay: as above
T3 construct: Human TF ECD with residues 1-77 replaced by rat segment
Experimental: as §1

h78-107_r.v2 = h78-107_r.v2 (human/rat chimera); assay: as above
Experimental: as §1

[2] = target: T4, hTF (human Tissue Factor construct) (human, UniProt P13726 33-251); assay: as above
T4 construct: also called human TF
Experimental: as §1

rTF (rat TF) [3] = target: T1, rTF (rat TF); assay: as above; remark: listed apart in the source
Experimental: as §1

r141-194_h = r141-194_h (rat/human chimera, UniProt P42533 29-252); assay: as above
Experimental: as §1

hTF_N171H_T197K = target: T5, hTF_N171H_T197K (human, UniProt P13726 33-251); assay: as above
T5 chain: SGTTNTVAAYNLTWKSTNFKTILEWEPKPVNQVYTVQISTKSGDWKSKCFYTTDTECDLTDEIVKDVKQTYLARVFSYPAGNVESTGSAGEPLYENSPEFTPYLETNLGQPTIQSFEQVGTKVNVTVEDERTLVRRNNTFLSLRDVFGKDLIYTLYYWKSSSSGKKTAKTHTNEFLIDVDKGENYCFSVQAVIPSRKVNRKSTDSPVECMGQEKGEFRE
Experimental: as §1

pig TF-His = target: T6, pig TF-His (Pig (Sus scrofa)); assay: Biacore SPR, antibody captured by anti-human IgG on CM5, pig TF-His titrated
T6 construct: also called pig TF ECD-His; pTF
T6 chain: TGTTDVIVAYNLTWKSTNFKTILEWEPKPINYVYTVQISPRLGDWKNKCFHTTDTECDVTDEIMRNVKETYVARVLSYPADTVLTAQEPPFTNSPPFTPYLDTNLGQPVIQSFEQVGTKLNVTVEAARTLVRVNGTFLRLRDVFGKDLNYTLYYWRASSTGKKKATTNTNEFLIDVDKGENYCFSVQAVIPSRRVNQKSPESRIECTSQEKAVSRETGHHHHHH
Experimental: (§2) The ability of certain antibodies was tested for binding to pig TF. For pig TF Biacore-based measurements, a given anti-TF antibody was captured by an anti-human IgG antibody covalently coupled to a CM5 chip (GE Healthcare Bio-Sciences). Association between the anti-TF antibodies and a five-point three-fold titration of pig TF-His starting at 100 nM was measured for 180 to 240 sec. Subsequently, dissociation between the anti-TF antibody and TF-His was measured for 1800 sec. Kinetic data was analyzed and fitted globally using a 1:1 binding model.

[4] = target: T7, pig TF ECD-His (TF-His) protein (pig (Sus scrofa)); assay: Biacore; antibody captured by anti-human IgG on CM5 chip, titration of pig TF-His
T7 construct: also called pig TF-His; pTF
T7 chain: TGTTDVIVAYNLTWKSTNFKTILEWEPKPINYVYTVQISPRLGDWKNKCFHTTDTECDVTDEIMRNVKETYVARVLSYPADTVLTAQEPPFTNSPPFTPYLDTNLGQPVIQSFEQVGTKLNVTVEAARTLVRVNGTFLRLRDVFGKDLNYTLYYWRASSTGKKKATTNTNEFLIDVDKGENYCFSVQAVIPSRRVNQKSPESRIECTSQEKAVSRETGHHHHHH
Experimental: as §2

[5] = target: T8, rabbit TF ECD-His (TF-His) protein (rabbit (Oryctolagus cuniculus), UniProt P24055 33-250); assay: Biacore; antibody captured by anti-human IgG on CM5 chip, titration of rabbit TF-His
T8 construct: also called rabbit TF-His
T8 sequence (P24055 other isoform, or with tags, fused parts or gaps): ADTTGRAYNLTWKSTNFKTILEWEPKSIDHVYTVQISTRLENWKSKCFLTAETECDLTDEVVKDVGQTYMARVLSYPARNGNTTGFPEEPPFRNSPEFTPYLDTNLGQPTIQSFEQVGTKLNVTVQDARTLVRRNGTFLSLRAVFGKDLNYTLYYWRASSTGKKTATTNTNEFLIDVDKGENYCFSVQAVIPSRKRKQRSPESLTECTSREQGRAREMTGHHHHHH
Experimental: The ability of certain antibodies was tested for binding to rabbit TF. For rabbit TF Biacore-based measurements, a given anti-TF antibody was captured by an anti-human IgG antibody covalently coupled to a CM5 chip (GE Healthcare Bio-Sciences). Association between the anti-TF antibodies and a five-point three-fold titration of rabbit TF-His starting at 100 nM was measured for 180 to 240 sec. Subsequently, dissociation between the anti-TF antibody and TF-His was measured for 1800 sec. Kinetic data was analyzed and fitted globally using a 1:1 binding model.

B1: 1F (antibody, V domains shown)
VH: EVQLLESGGGLVQPGGSLRLSCAASGFTFSDYAMGWVRQAPGKGLEWVSTISGSGGLTYYADSVKGRFTISRDNSKNTLYLQMNSLRAEDTAVYYCAKAPYGYYMDVWGKGTTVTVSS
VL: not shown
notes: Human IgG (detected with anti-human IgG-Fc)
percent antibody binding to TF construct relative to hTF (rTF (rat TF) [1]): 0%
percent antibody binding to TF construct relative to hTF (h1-107_r): 0%
percent antibody binding to TF construct relative to hTF (h1-77_r): 0%
percent antibody binding to TF construct relative to hTF (h78-107_r.v2): 0%
percent antibody binding to TF construct relative to hTF [2]: 100%
percent antibody binding to TF construct relative to hTF (rTF (rat TF) [3]): 0%
percent antibody binding to TF construct relative to hTF (r141-194_h): 0%
percent antibody binding to TF construct relative to hTF (hTF_N171H_T197K): 83%

B2: 29E (antibody, V domains shown)
VH: QVQLVESGGGVVQPGRSLRLSCAASGFTFRSYGMHWVRQAPGKGLEWVAVITYDGINKYYADSVEGRFTISRDNSKNTLYLQMNSLRAEDTAVYYCARDGVYYGVYDYWGQGTLVTVSS
VL: not shown
notes: as for B1
percent antibody binding to TF construct relative to hTF (rTF (rat TF) [1]): 0%
percent antibody binding to TF construct relative to hTF (h1-107_r): 0%
percent antibody binding to TF construct relative to hTF (h1-77_r): 0%
percent antibody binding to TF construct relative to hTF (h78-107_r.v2): 0%
percent antibody binding to TF construct relative to hTF [2]: 100%
percent antibody binding to TF construct relative to hTF (rTF (rat TF) [3]): 0%
percent antibody binding to TF construct relative to hTF (r141-194_h): 0%
percent antibody binding to TF construct relative to hTF (hTF_N171H_T197K): 98%

B3: 1G (antibody, V domains shown)
VH: EVQLLESGGGLVQPGGSLRLSCAASGFTFSSYAMAWVRQAPGKGLEWVSAISGSGGLTYYADSVKGRFTISRDNSKNTLYLQMNSLRAEDTAVYYCAKAPYGYYMDVWGKGTTVTVSS
VL: not shown
notes: Human IgG (captured by anti-human IgG in the Biacore assay); also called antibody designated 1G
binding result (pig TF-His): no binding

B4: 29D (antibody, V domains shown)
VH: QVQLVESGGGVVQPGRSLRLSCAASGFTFHSRGMHWVRQAPGKGLEWVAVITYDGINKYYADSVEGRFTISRDNSKNTLYLQMNSLRAEDTAVYYCARDGVYYGVYDYWGQGTLVTVSS
VL: not shown
notes: Human IgG (captured by anti-human IgG in the Biacore assay); also called antibody designated 29D
binding result (pig TF-His): no binding

B5: anti-TF antibody 1G (antibody, human IgG1, V domains shown)
VH: EVQLLESGGGLVQPGGSLRLSCAASGFTFSSYAMAWVRQAPGKGLEWVSAISGSGGLTYYADSVKGRFTISRDNSKNTLYLQMNSLRAEDTAVYYCAKAPYGYYMDVWGKGTTVTVSS
VL: not shown
notes: Human IgG1
binding result [4]: no binding
binding result [5]: no binding

B6: anti-TF antibody 29D (antibody, human IgG1, V domains shown)
VH: QVQLVESGGGVVQPGRSLRLSCAASGFTFHSRGMHWVRQAPGKGLEWVAVITYDGINKYYADSVEGRFTISRDNSKNTLYLQMNSLRAEDTAVYYCARDGVYYGVYDYWGQGTLVTVSS
VL: not shown
notes: Human IgG1
binding result [4]: no binding
binding result [5]: no binding
